Biological target: kallikrein
Experiment: enzyme inhibition kinetics, chromogenic substrate, OD 405 nm

B1: Haemadipsa sylvestris antithrombotic peptide Sylvestin (peptide)
peptide: TSEPVCACPKMLFWVCGKDGETYTHPCIAKCHNVEVEHDGKCK
modifications: not checked
  Ki: 17.8 nM
